Results taken from the supplement of paper PMC10567573.
± gives the standard deviation.

Assay: protein stability index of a GFP-peptide fusion (GPS, HEK-293T) (PSI 1-6); higher = more stable
Conditions: c terminus: a fixed tail appended
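Also: 24-mer peptide tiles fused after GFP, lentivirally expressed, FACS-sorted into six equal bins by GFP/DsRed ratio, decoded by Illumina sequencing, PSI is the read-weighted mean bin number.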

| Sequence | protein stability index (treatment: DMSO) | protein stability index (treatment: MLN4924 1 uM, 8 h) |
| --- | --- | --- |
| LYHNVEGFTDRREARKYASNLLKA [DVL3] | 3.39 ± 0.071 | 3.49 ± 0.22 |
| PSTLLPTPEEQGELEPLKGNFDWE [FOXJ1] | 5.17 ± 0.068 | 5.16 ± 0.29 |
| WRTWMTITQSWQVSVRVQPRGRAH [C22orf15] | 2.38 ± 0.64 | 3.05 ± 0.39 |
| PTPIFAGGANDRWVRSVSFSHDGL [WSB1] | 2.61 ± 0.19 | 2.99 ± 0.64 |
| ASSGSNSSASSEQGLLGRSPPTRP [SPRY1] | 5.19 ± 0.34 | 5.38 ± 0.2 |
| MKRHSSRDAAGKPQRPRSAPRTSS [FCHO1] | 4.82 ± 0.28 | 4.92 ± 0.34 |
| ALSKHFIPYNAKFLGSTEVEQPKG [GULP1] | 3.19 ± 0.23 | 3.55 ± 0.2 |
| VFFIYLYQRWIYRVDPTRVNEFGM [CLPTM1] | 2.96 ± 0.49 | 2.69 ± 0.055 |
| TNGSFSPSGNNGSVNWRTGSFHGP [DLC1] | 3.09 ± 0.3 | 3.11 ± 0.23 |
| SLELDKMAHGYGEESEEERGLEPG [CHGB] | 5.49 ± 0.46 | 5.41 ± 0.19 |
| LITFDNKAHSGRIPISLETQAHIQ [MCOLN1] | 2.91 ± 0.26 | 3.04 ± 0.23 |
| TLRLRENCVLSSSPNPFPEISRGE [ZNF8] | 3.61 ± 0.33 | 3.66 ± 0.33 |
| APAVEVAPAGASYNPSFEDHQTLL [NOP53] | 4.84 ± 0.12 | 5.14 ± 0.25 |
| RCVSFQARFAEKEELMLVHSLEYI [HDAC6] | – | 2.19 ± 0.3 |
| KRLKHKDDSVMKATQQARKRNFIS [C22orf31] | 4.11 ± 0.27 | 4.19 ± 0.23 |
| YCFMIAYGTQRTLILESQNWRYAT [FUT8] | 3.46 ± 0.51 | 3.28 ± 0.27 |
| TPYPNLYPDQSPSEDWTMEERFRP [CLCN6] | 3.85 ± 0.26 | 4.07 ± 0.15 |

| Sequence | protein stability index (treatment: DMSO) | protein stability index (treatment: MLN4924 1 uM, 8 h) |
| --- | --- | --- |
| DGMSGLAGVGLSGGAAGAGWCIFV [ELAVL3] | 2.83 ± 1.1 | 2.69 ± 0.98 |
| PGDCFLLLVLLLYAPVGFCLLVLR [AUP1] | 3.1 ± 0.44 | 3.13 ± 0.35 |
| KVASSDLVNMGISVVSYTLKDIHD [FLOT1] | 2.34 ± 0.17 | 2.37 ± 0.29 |
| RQETVDCLKKFNARRKLKGAILTT [CAMK2A] | 3.15 ± 0.26 | 3.33 ± 0.24 |
| HHLFPTMPRHNYHKVAPLVQSLCA [FADS1] | 2.4 ± 0.32 | 2.51 ± 0.17 |
| DLDAWSILIREAQNQPIDKARKTY [CSTF3] | 2.8 ± 0.34 | 3.04 ± 0.66 |
| GWCSGDAISSVERYDPQTNEWRMV [KLHL20] | 2.84 ± 0.24 | 2.95 ± 0.34 |
| AVGGRDDTTELSSAERYNPRTNQW [KLHL20] | 4.47 ± 0.21 | 4.5 ± 0.16 |
| TDRSFNIVDIKPANMEDLTEVITA [PPP2R2C] | 4.42 ± 0.14 | 4.37 ± 0.15 |
| RLDGQQEPQPFVTSDVYSSDAAFG [MYORG] | 4.56 ± 0.26 | 4.63 ± 0.14 |
| GAAESPYAYSNGIDYKTTTILLDG [RAB40C] | 3.7 ± 0.39 | 3.67 ± 0.39 |
| GETYCEEHGEKIYFFCENDAEFLC [TRIM15] | 3.22 ± 0.26 | 3.33 ± 0.44 |
| AFQITGVWDASRAPRGTPDPGLGE [PLEKHN1] | 3.85 ± 0.31 | 3.78 ± 0.21 |
| QFILERGEYPRWDAWSGSNAYHIE [CRYBA1] | 2.31 ± 0.17 | 2.19 ± 0.18 |
| ILGRTFFIYDCDPFTRRYYKEKFG [EFHC1] | 2.52 ± 0.63 | 2.24 ± 0.63 |
| SQSWHTESLPVSLGPESWQQIAMD [BCL2L13] | 3.79 ± 0.24 | 3.93 ± 0.23 |
